{
  "source": "patent US20130261012A1",
  "about": "(published 2013)",
  "binders": {"B1": {"name": "FZD10 (receptor)", "chain": "ISSMDMERPGDGKCQPIEIPMCKDIGYNMTRMPNLMGHENQREAAIQLHEFAPLVEYGCHGHLRFFLCSLYAPMCTEQVSTPIPACRVMCEQARLKCSPIMEQFNFKWPDSLDCRKLPNKNDPNYLCMEAPNNGSDEPTRGSGLFPPLFRPQRPHSAQEHPLKDGGPGRGGCDNPGKFHHVEKSASCAPLCTPGVDVYWSREDKRFAVVWLAIWAVLCFFSSAFTVLTFLIDPARFRYPERPIIFLSMCYCVYSVGYLIRLFAGAESIACDRDSGQLYVIQEGLESTGCTLVFLVLYYFGMASSLWWVVLTLTWFLAAGKKWGHEAIEANSSYFHLAAWAIPAVKTILILVMRRVAGDELTGVCYVGSMDVNALTGFVLIPLACYLVIGTSFILSGFVALFHIRRVMKTGGENTDKLEKLMVRIGLFSVLYTVPATCVIACYFYERLNMDYWKILAAQHKCKMNNQTKTLDCLMAASIPAVEIFMVKIFMLLVVGITSGMWIWTSKTLQSWQQVCSRRLKKKSRRKPASVITSGGIYKKAQHPQKTHHGKYEIPAQSPTCV"}},
  "target": "S3",
  "assay": "apparent affinity of recombinant chimeric mAb, cell binding",
  "data": [
    {"binder": "B1", "values": [
      {"measurement": "Kd", "result": "> 40", "unit": "nM"}
    ]}
  ]
}
